The text below walks through data of patent US20190160028A1.

This assay concerns the target Nluc-NS2B (49-66) (named as Nluc-E66stop) (firefly; Dengue virus serotype 2 (DENV2)) [luciferase: P08659].

Chain of Nluc-NS2B (49-66) (named as Nluc-E66stop) (firefly; Dengue virus serotype 2 (DENV2)) [luciferase: P08659] (P08659 whole entry): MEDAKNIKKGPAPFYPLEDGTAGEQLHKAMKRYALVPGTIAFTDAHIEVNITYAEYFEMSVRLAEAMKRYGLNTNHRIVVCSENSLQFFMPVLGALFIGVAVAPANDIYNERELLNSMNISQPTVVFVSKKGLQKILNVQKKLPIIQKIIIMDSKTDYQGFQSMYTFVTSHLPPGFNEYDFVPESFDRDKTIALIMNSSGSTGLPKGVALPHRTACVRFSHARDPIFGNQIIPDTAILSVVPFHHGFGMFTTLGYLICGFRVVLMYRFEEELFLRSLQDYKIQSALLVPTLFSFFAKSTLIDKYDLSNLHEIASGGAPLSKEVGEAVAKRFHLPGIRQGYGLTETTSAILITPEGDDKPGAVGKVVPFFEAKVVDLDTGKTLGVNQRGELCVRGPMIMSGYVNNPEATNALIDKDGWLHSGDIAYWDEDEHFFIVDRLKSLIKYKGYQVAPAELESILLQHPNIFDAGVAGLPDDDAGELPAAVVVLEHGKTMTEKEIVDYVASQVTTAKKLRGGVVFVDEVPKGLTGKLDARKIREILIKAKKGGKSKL

As to “His-tagged maltose-binding protein (MBP) fused to DENV2 NS3 protein (His-MBP-NS3) (from UniProt P14337 1476-1654) (enzyme)”, the affinity came to 2.5 µM.
